B1: RHOBTB2 (parent)
chain: LYTGELDENERDLMHIAHIAELLE

Variants of: B1
Assay: protein stability index of a GFP-peptide fusion (GPS, HEK-293T) (PSI 1-6); higher = more stable
Conditions: c terminus: a fixed tail appended
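Further: lentivirally expressed fusions sorted by FACS into six bins by GFP to DsRed ratio, PSI derived from sequencing read proportions per bin multiplied by bin number.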

Row | Variant | protein stability index
1 | LYTGELDCNERDLMHIAHIAELLE | 2.05
2 | LYTGELDKNERDLMHIAHIAELLE | 2.28
3 | LYTGELDMNERDLMHIAHIAELLE | 1.78
4 | LYTGELDTNERDLMHIAHIAELLE | 2.4
5 | LYTGELDPNERDLMHIAHIAELLE | 2.15
6 | LYTGELDLNERDLMHIAHIAELLE | 1.57
7 | LYTGELDGNERDLMHIAHIAELLE | 1.91
8 | LYTGELDDNERDLMHIAHIAELLE | 3.23
9 | LYTGELDRNERDLMHIAHIAELLE | 2.46
10 | LYTGELDANERDLMHIAHIAELLE | 2.08
11 | LYTGELDWNERDLMHIAHIAELLE | 2.88
12 | LYTGELDYNERDLMHIAHIAELLE | 2.23
13 | LYTGELDQNERDLMHIAHIAELLE | 2.85
14 | LYTGELDNNERDLMHIAHIAELLE | 2.21
15 | LYTGELDFNERDLMHIAHIAELLE | 1.96
16 | LYTGELDINERDLMHIAHIAELLE | 1.62
17 | LYTGELDSNERDLMHIAHIAELLE | 2.29
18 | LYTGELDHNERDLMHIAHIAELLE | 2.39
19 | LYTGELDVNERDLMHIAHIAELLE | 2.9
20 | LYTGELDEHERDLMHIAHIAELLE | 2.54
21 | LYTGELDEGERDLMHIAHIAELLE | 2.82
22 | LYTGELDEIERDLMHIAHIAELLE | 3.37
23 | LYTGELDEEERDLMHIAHIAELLE | 3.15
24 | LYTGELDEAERDLMHIAHIAELLE | 2.57

Row | Variant | protein stability index
25 | LYTGELDEMERDLMHIAHIAELLE | 1.86
26 | LYTGELDEDERDLMHIAHIAELLE | 2.59
27 | LYTGELDETERDLMHIAHIAELLE | 2.71
28 | LYTGELDERERDLMHIAHIAELLE | 2.79
29 | LYTGELDESERDLMHIAHIAELLE | 2.19
30 | LYTGELDEFERDLMHIAHIAELLE | 1.34
31 | LYTGELDEYERDLMHIAHIAELLE | 1.64
32 | LYTGELDEKERDLMHIAHIAELLE | 2.68
33 | LYTGELDEVERDLMHIAHIAELLE | 1.89
34 | LYTGELDELERDLMHIAHIAELLE | 1.51
35 | LYTGELDECERDLMHIAHIAELLE | 1.85
36 | LYTGELDEQERDLMHIAHIAELLE | 2.25
37 | LYTGELDEPERDLMHIAHIAELLE | 2.03
38 | LYTGEWDENERDLMHIAHIAELLE | 2.44
39 | LYTGESDENERDLMHIAHIAELLE | 2.81
40 | LYTGERDENERDLMHIAHIAELLE | 2.79
41 | LYTGEVDENERDLMHIAHIAELLE | 2.38
42 | LYTGEYDENERDLMHIAHIAELLE | 2.6
43 | LYTGETDENERDLMHIAHIAELLE | 3.57
44 | LYTGEQDENERDLMHIAHIAELLE | 3.86
45 | LYTGELDENEFDLMHIAHIAELLE | 1.83
46 | LYTGELDENEMDLMHIAHIAELLE | 1.96
47 | LYTGELDENELDLMHIAHIAELLE | 1.77
48 | LYTGELDENEADLMHIAHIAELLE | 2.27

Row | Variant | protein stability index
49 | LYTGELDENEKDLMHIAHIAELLE | 2.77
50 | LYTGELDENEDDLMHIAHIAELLE | 2.9
51 | LYTGELDENEGDLMHIAHIAELLE | 3.32
52 | LYTGELDENECDLMHIAHIAELLE | 2.66
53 | LYTGELDENEEDLMHIAHIAELLE | 2.44
54 | LYTGELDENEIDLMHIAHIAELLE | 2.57
55 | LYTGELDENEHDLMHIAHIAELLE | 2.39
56 | LYTGELDENENDLMHIAHIAELLE | 2.1
57 | LYTGELDENQRDLMHIAHIAELLE | 2.61
58 | LYTGELDENSRDLMHIAHIAELLE | 1.98
59 | LYTGELDENGRDLMHIAHIAELLE | 2.02
60 | LYTGELDENVRDLMHIAHIAELLE | 1.89
61 | LYTGELDENNRDLMHIAHIAELLE | 2.83
62 | LYTGELDENCRDLMHIAHIAELLE | 2.6
63 | LYTGELDENMRDLMHIAHIAELLE | 1.68
64 | LYTGELDENIRDLMHIAHIAELLE | 2.26
65 | LYTGELDENLRDLMHIAHIAELLE | 2.24
66 | LYTGELDENKRDLMHIAHIAELLE | 1.94
67 | LYTGELDENWRDLMHIAHIAELLE | 2.41
68 | LYTGELDENPRDLMHIAHIAELLE | 1.88
69 | LYTGELDENFRDLMHIAHIAELLE | 2.53
70 | LYTGELDENARDLMHIAHIAELLE | 2.58
71 | LYTGELDENDRDLMHIAHIAELLE | 2.87
72 | LYTGELDENTRDLMHIAHIAELLE | 2.66

Row | Variant | protein stability index
73 | LYTGELDENRRDLMHIAHIAELLE | 2.58
74 | LYTGELDENYRDLMHIAHIAELLE | 1.95
75 | LYTGELDENHRDLMHIAHIAELLE | 2.05
76 | LYTGELQENERDLMHIAHIAELLE | 1.94
77 | LYTGELEENERDLMHIAHIAELLE | 2.41
78 | LYTGELTENERDLMHIAHIAELLE | 2.16
79 | LYTGELAENERDLMHIAHIAELLE | 2.48
80 | LYTGELCENERDLMHIAHIAELLE | 1.88
81 | LYTGELKENERDLMHIAHIAELLE | 2.33
82 | LYTGELSENERDLMHIAHIAELLE | 2.48
83 | LYTGELWENERDLMHIAHIAELLE | 1.64
84 | LYTGELPENERDLMHIAHIAELLE | 2.52
85 | LYTGELMENERDLMHIAHIAELLE | 1.97
86 | LYTGELVENERDLMHIAHIAELLE | 2.46
87 | LYTGELHENERDLMHIAHIAELLE | 1.62
88 | LYTGELRENERDLMHIAHIAELLE | 2.25
89 | LYTGELNENERDLMHIAHIAELLE | 2.17
90 | LYTGELYENERDLMHIAHIAELLE | 1.89
91 | LYTGELIENERDLMHIAHIAELLE | 1.77
92 | LYTGELLENERDLMHIAHIAELLE | 3.31
93 | LYTGELGENERDLMHIAHIAELLE | 2.15
94 | LYTGELFENERDLMHIAHIAELLE | 2.3
